Columns and labels:
[1] = target: α-syn NAC (α-syn 57–102) (human) (UniProt P37840)
[2] = target: α-syn ΔC (α-synuclein A53T deletion mutant lacking most of the C-terminal part) (human)
[3] = target: α-synuclein A53T amyloid fibres (human) (UniProt P37840); test: co-sedimentation; purified fibres (3.5 μM at monomer concentration) with 0.7 μM CCT or GroEL in 25 mM Tris pH 7.4, 5 mM MgCl2, 150 mM NaCl, 10% glycerol, 30 min, room temperature; 141,000 xg, 60 min, 4 °C; pellet and supernatant on SDS-PAGE, Coomassie, ImageJ

Sequence of chaperonin CCT (chaperonin containing TCP-1), bovine testis (Q3MHL7 whole entry, looked up): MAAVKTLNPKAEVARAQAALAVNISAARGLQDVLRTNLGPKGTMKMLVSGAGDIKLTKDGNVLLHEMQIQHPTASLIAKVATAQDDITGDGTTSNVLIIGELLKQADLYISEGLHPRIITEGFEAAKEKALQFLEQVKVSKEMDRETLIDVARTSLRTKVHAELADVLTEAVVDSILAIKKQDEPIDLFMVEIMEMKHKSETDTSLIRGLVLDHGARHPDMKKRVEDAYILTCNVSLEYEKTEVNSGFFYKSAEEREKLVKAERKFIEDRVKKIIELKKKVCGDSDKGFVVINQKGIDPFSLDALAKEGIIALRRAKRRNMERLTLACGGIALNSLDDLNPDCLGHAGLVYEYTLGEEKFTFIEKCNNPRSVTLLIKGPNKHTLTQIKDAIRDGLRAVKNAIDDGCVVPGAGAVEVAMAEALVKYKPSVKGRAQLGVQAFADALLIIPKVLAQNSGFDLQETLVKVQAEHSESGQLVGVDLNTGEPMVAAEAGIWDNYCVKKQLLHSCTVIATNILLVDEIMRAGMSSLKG
Sequence of chaperonin CCT (chaperonin containing TCP-1), bovine testis (Q3T0K2 whole entry, looked up): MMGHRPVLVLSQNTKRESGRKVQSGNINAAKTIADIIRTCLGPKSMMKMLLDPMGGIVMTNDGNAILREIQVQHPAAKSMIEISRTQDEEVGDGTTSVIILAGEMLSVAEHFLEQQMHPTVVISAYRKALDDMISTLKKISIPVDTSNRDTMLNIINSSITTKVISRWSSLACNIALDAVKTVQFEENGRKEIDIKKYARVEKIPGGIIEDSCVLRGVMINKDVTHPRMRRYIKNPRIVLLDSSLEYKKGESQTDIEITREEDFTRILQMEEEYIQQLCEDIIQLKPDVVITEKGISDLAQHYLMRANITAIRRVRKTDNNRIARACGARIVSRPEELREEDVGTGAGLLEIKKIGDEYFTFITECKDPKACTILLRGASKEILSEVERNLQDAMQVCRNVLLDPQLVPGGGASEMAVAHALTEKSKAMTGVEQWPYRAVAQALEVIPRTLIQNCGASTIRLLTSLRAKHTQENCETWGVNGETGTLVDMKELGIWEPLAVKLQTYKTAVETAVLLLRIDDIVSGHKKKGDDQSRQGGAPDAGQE
Sequence of chaperonin CCT (chaperonin containing TCP-1), bovine testis (Q3ZBH0 whole entry, looked up): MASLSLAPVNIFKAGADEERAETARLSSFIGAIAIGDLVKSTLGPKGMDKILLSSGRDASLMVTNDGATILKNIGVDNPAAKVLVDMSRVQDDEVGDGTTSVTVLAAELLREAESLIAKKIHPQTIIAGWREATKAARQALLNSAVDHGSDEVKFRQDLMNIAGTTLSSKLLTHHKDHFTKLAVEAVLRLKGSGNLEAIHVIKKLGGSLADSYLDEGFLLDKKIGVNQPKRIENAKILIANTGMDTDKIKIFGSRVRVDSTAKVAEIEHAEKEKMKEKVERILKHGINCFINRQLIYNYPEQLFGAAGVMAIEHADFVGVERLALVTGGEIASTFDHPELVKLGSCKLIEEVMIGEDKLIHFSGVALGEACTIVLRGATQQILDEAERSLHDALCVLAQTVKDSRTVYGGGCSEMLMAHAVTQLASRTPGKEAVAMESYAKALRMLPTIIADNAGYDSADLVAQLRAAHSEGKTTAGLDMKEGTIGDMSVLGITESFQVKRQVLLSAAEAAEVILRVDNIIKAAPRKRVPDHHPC
Sequence of chaperonin CCT (chaperonin containing TCP-1), bovine testis (Q32L40 whole entry, looked up): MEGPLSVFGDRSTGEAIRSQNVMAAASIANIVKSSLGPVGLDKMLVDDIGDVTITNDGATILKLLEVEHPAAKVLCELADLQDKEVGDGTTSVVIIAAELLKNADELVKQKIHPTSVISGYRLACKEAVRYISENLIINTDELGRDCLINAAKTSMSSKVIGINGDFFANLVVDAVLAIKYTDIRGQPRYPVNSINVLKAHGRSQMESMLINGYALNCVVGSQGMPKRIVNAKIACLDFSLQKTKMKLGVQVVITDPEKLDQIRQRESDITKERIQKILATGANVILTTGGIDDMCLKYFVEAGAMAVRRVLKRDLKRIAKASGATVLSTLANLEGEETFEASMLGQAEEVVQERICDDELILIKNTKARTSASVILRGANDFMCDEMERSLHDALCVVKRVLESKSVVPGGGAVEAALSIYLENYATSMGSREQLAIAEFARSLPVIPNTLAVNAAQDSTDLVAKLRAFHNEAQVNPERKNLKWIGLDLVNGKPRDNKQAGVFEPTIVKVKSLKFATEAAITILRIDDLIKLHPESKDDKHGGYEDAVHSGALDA

percentage of α-syn NAC fibres (ThT fluorescence) with ADP and CCT at a molar ratio of 1:50 CCT:deletion mutant [1] [%]	percentage of α-syn ΔC fibres (ThT fluorescence) with ADP and CCT: 33% at a molar ratio of 1:10, 58% at 1:50 [2] [%]	percent of CCT cosedimented with fibres [3] [%]	Substance
38	58	–	chaperonin CCT (chaperonin containing TCP-1), bovine testis (from UniProt Q32L40 1-556; Q3ZBH0 1-535; Q3T0K2 1-545; Q3MHL7 1-531) (complex)
–	–	< 60	chaperonin CCT (chaperonin containing TCP-1), bovine testis, Q32L40 1-556; Q3ZBH0 1-535; Q3T0K2 1-545; Q3MHL7 1-531

— PMC5244355
